# In the supplement of paper PMC10598134:
# ± gives the standard deviation.
# Experiment: collision cross section of unmodified peptide (TIMS, N2, iRT-aligned); higher = larger / more extended gas-phase ion
# In short: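 Values are averages of 1–3 technical replicates of the most abundant feature for each charge state. Collision cross section was obtained from the Mason-Schamp equation after 1/K0 calibration with three reference ions and run-wise alignment to the median iRT peptide deviation. Synthetic peptide pools (iRT standard spiked 1:40) were separated on a 120-min nanoflow C18 gradient at 60 °C, analysed on a timsTOF Pro/HT (dda-PASEF, nitrogen, ~2.4 mbar) and identified with MaxQuant.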
Substance,collision cross section (charge state: 2) [Å²],collision cross section (charge state: 3) [Å²]
GARLPGPVSSAR,359.36 ± 0.74,465.32 ± 9.3
YRGDYDR,327.87 ± 0.56,412.63 ± 6.2
TAGSSGVTAGRPRPTAR,,538.39 ± 0.86
GGRGTPGK,284.56 ± 17,
LQLEIDQKK,366.48 ± 1.6,427.93 ± 3.7
ISEILLDHGAPIQAK,447.46 ± 0.13,537.87 ± 1.7
RFGGPVHHQAQR,386.03 ± 0.46,495.72 ± 1.2
SGGGYGGDRGGGYGGDR,393.08 ± 1.3,460.09 ± 0.81
FLQEFYQDDELGK,424.29 ± 0.5,
FSAYIKNSNPALNDNLEK,493.15 ± 3.7,521.97 ± 3.2
DYILEGEPGK,348.93 ± 0.15,
LYDIDVAK,334.71 ± 0.73,
GDPGLIGPK,313.62 ± 1.5,
VGEFSGANKEK,374.9 ± 0.4,443.03 ± 4.2
GADFLVTEVENGGSLGSKK,494.06 ± 6.8,535.68 ± 1.1
DLTTAGAVTQCYR,396.98 ± 0.16,489.14
YIEIYVQKVNPSR,435.38 ± 2.7,505.68 ± 2.1
GAPGPQGPPGPPGK,357.97 ± 0.58,
IHVQSSSDSSDEPAEKR,455.51 ± 2.8,536.3 ± 1.4
VQFAPEK,317.04 ± 1.1,
SFEDIHQYR,359.99 ± 0.48,450.82 ± 1.1
IYHPNVDK,337.77 ± 0.73,425.77 ± 2
AAQASDLEKIHLDEK,447.85 ± 1.2,506 ± 5.5

Substance,collision cross section (charge state: 2) [Å²],collision cross section (charge state: 3) [Å²]
HIGFVYHPTK,378.19 ± 1.1,450.25 ± 1.7
GGQGPPGPQGPIGYPGPR,419.74 ± 1,520.51 ± 0.87
LQEKVESAQSEQK,416.22 ± 2.1,487.5 ± 6.9
GERGPPGPPGK,325.96 ± 0.79,437.43 ± 1.2
YSSNLGNFNYEQRGAFR,,529.47 ± 0.012
ANAIGRGAK,319.32 ± 2.5,
AGPNASIISLKSDK,408.7 ± 1.4,483.51 ± 6.7
DLEEAEEYK,358.42 ± 0.55,
YTAQVDAEEK,355.03 ± 0.55,
PGTPAGYGRGR,352.56 ± 0.57,442.29 ± 3.7
VRFHNPR,337.63 ± 0.7,406.2 ± 6.3
AYILNLVK,331.04 ± 1.1,
TSSEASVSSSVAK,370.17 ± 0.67,
LVLPSQAQARLPSGEVVK,482.13 ± 2.1,526.02 ± 0.85
HVSPVTPPR,327.76 ± 0.64,
AVPSSPAGSAARGR,380.85 ± 0.71,489.36 ± 2
VGYPGPSGPLGARGIPGIK,447.51 ± 0.68,562.22 ± 0.35
TATLATLATR,333.86 ± 0.69,
LPPGALAHRLPTTGYLVYR,,556.45 ± 1.4
STGLELETPSLVPVKK,457.57 ± 5.2,520.54 ± 2.5
PRGVISTPVIR,371.76 ± 0.55,450.44 ± 3.9
RGPPGAK,308.91 ± 1.4,
